One assay addresses CD16 (UniProt P08637 17-208).
In assay [1] the target is T1, XENP23311 (His-tagged NKG2D-Fc) (human, UniProt P26718 78-216).
T1 chain: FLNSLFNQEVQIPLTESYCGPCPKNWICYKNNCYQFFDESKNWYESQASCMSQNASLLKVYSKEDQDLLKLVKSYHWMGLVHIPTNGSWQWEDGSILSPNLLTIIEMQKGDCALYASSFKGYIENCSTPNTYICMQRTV
The experiment in a line: Octet. (In general: In BLI a coated tip is dipped into the sample, and binding shifts an interference pattern.)

Sequence of CD16 (P08637 17-208): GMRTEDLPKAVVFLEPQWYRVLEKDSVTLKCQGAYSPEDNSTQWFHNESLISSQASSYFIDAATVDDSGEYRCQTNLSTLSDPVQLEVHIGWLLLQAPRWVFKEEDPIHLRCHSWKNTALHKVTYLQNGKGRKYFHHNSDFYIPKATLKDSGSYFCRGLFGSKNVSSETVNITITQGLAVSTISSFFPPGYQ

B1: XENP41022 (antibody)
chain 1: EVQLLESGGGLVQPGGSLRLSCAVSGFSLSSYGVIWVRQAPGKGLEYVSWVSSGGSTNYASSVKGRFTISRDTSKNTVYLQMNSLRAEDTAVYFCARGATNSGTDIWGPGTLVTVSSASTKGPSVFPLAPSSKSTSGGTAALGCLVKDYFPEPVTVSWNSGALTSGVHTFPAVLQSSGLYSLSSVVTVPSSSLGTQTYICNVNHKPSDTKVDKKVEPKSCDKTHTCPPCPAPELLGGPDVFLFPPKPKDTLMISRTPEVTCVVVDVSHEDPEVKFNWYVDGVEVHNAKTKPREEEYNSTYRVVSVLTVLHQDWLNGKEYKCKVSNKALPAPEEKTISKAKGQPREPQVYTLPPSREEMTKNQVSLTCDVSGFYPSDIAVEWESDGQPENNYKTTPPVLDSDGSFFLYSKLTVDKSRWEQGDVFSCSVMHEALHNHYTQKSLSLSPGK
chain 2: EVQLLESGGGLVQPGGSLRLSCAVSGFSLSSYGVIWVRQAPGKGLEYVSWVSSGGSTNYASSVKGRFTISRDTSKNTVYLQMNSLRAEDTAVYFCARGATNSGTDIWGPGTLVTVSSGKPGSGKPGSGKPGSGKPGSDIVMTQSPSSLSASVGDRVTITCRASQSINSWLSWYQQKPGKPPKLLIYGASNLASGVPSRFKGSGSGTDFTLTISSLQPEDFATYYCQNNYGIIAAGATFGGGTKVEIKEPKSSDKTHTCPPCPAPELLGGPDVFLFPPKPKDTLMISRTPEVTCVVVDVSHEDPEVKFNWYVDGVEVHNAKTKPREEQYNSTYRVVSVLTVLHQDWLNGKEYKCKVSNKALPAPEEKTISKAKGQPREPQVYTLPPSREQMTKNQVKLTCLVKGFYPSDIAVEWESNGQPENNYKTTPPVLDSDGSFFLYSKLTVDKSRWQQGNVFSCSVMHEALHNHYTQKSLSLSPGK
chain 3: DIVMTQSPSSLSASVGDRVTITCRASQSINSWLSWYQQKPGKPPKLLIYGASNLASGVPSRFKGSGSGTDFTLTISSLQPEDFATYYCQNNYGIIAAGATFGGGTKVEIKRTVAAPSVFIFPPSDEQLKSGTASVVCLLNNFYPREAKVQWKVDNALQSGNSQESVTEQDSKDSTYSLSSTLTLSKADYEKHKVYACEVTHQGLSSPVTKSFNRGEC
Usually Kd stands for the equilibrium constant for the complex coming apart. A higher Kd goes with weaker binding. In the assay with CD16, B1 gave a Kd of 28.9 nM.

B2: XENP40372 (1D2B4, 1+1 VHVL) (antibody)
chain 1: EVQLLESGGGLVQPGGSLRLSCAVSGFSLSSYGVIWVRQAPGKGLEYVSWVSSGGSTNYASSVKGRFTISRDTSKNTVYLQMNSLRAEDTAVYFCARGATNSGTDIWGPGTLVTVSSASTKGPSVFPLAPSSKSTSGGTAALGCLVKDYFPEPVTVSWNSGALTSGVHTFPAVLQSSGLYSLSSVVTVPSSSLGTQTYICNVNHKPSDTKVDKKVEPKSCDKTHTCPPCPAPELLGGPSVFLFPPKPKDTLMISRTPEVTCVVVDVSHEDPEVKFNWYVDGVEVHNAKTKPREEEYNSTYRVVSVLTVLHQDWLNGKEYKCKVSNKALPAPIEKTISKAKGQPREPQVYTLPPSREEMTKNQVSLTCDVSGFYPSDIAVEWESDGQPENNYKTTPPVLDSDGSFFLYSKLTVDKSRWEQGDVFSCSVMHEALHNHYTQKSLSLSPGK
chain 2: not shown
chain 3: DIVMTQSPSSLSASVGDRVTITCRASQSINSWLSWYQQKPGKPPKLLIYGASNLASGVPSRFKGSGSGTDFTLTISSLQPEDFATYYCQNNYGIIAAGATFGGGTKVEIKRTVAAPSVFIFPPSDEQLKSGTASVVCLLNNFYPREAKVQWKVDNALQSGNSQESVTEQDSKDSTYSLSSTLTLSKADYEKHKVYACEVTHQGLSSPVTKSFNRGEC
Regarding B2, in assay [1], the Kd worked out at 35.7 nM.

B3: XENP41030 (antibody)
chain 1: EVQLLESGGGLVQPGGSLRLSCAVSGFSLSSYGVIWVRQAPGKGLEYVSWVSSGGSTNYASSVKGRFTISRDTSKNTVYLQMNSLRAEDTAVYFCARGATNSGTDIWGPGTLVTVSSASTKGPSVFPLAPSSKSTSGGTAALGCLVKDYFPEPVTVSWNSGALTSGVHTFPAVLQSSGLYSLSSVVTVPSSSLGTQTYICNVNHKPSDTKVDKKVEPKSCDKTHTCPPCPAPELLGGPSVFLFPPKPKDTLMISRTPEVTCVVVDVSHEDPEVKFNWYVDGVEVHNAKTKPREEEYNSTYRVVSVLTVLHQDWLNGKEYKCKVSNKALPAPEEKTISKAKGQPREPQVYTLPPSREEMTKNQVSLTCDVSGFYPSDIAVEWESDGQPENNYKTTPPVLDSDGSFFLYSKLTVDKSRWEQGDVFSCSVMHEALHNHYTQKSLSLSPGK
chain 2: not shown
chain 3: DIVMTQSPSSLSASVGDRVTITCRASQSINSWLSWYQQKPGKPPKLLIYGASNLASGVPSRFKGSGSGTDFTLTISSLQPEDFATYYCQNNYGIIAAGATFGGGTKVEIKRTVAAPSVFIFPPSDEQLKSGTASVVCLLNNFYPREAKVQWKVDNALQSGNSQESVTEQDSKDSTYSLSSTLTLSKADYEKHKVYACEVTHQGLSSPVTKSFNRGEC
B3 showed a dissociation constant Kd with CD16 of 203 nM.

B4: XENP40587 (1D2B4, 2+1 VHVL) (antibody)
chain 1: EVQLLESGGGLVQPGGSLRLSCAVSGFSLSSYGVIWVRQAPGKGLEYVSWVSSGGSTNYASSVKGRFTISRDTSKNTVYLQMNSLRAEDTAVYFCARGATNSGTDIWGPGTLVTVSSASTKGPSVFPLAPSSKSTSGGTAALGCLVKDYFPEPVTVSWNSGALTSGVHTFPAVLQSSGLYSLSSVVTVPSSSLGTQTYICNVNHKPSDTKVDKKVEPKSCDKTHTCPPCPAPELLGGPSVFLFPPKPKDTLMISRTPEVTCVVVDVSHEDPEVKFNWYVDGVEVHNAKTKPREEEYNSTYRVVSVLTVLHQDWLNGKEYKCKVSNKALPAPIEKTISKAKGQPREPQVYTLPPSREEMTKNQVSLTCDVSGFYPSDIAVEWESDGQPENNYKTTPPVLDSDGSFFLYSKLTVDKSRWEQGDVFSCSVMHEALHNHYTQKSLSLSPGK
chain 2: not shown
chain 3: DIVMTQSPSSLSASVGDRVTITCRASQSINSWLSWYQQKPGKPPKLLIYGASNLASGVPSRFKGSGSGTDFTLTISSLQPEDFATYYCQNNYGIIAAGATFGGGTKVEIKRTVAAPSVFIFPPSDEQLKSGTASVVCLLNNFYPREAKVQWKVDNALQSGNSQESVTEQDSKDSTYSLSSTLTLSKADYEKHKVYACEVTHQGLSSPVTKSFNRGEC
The molecule B4 showed a dissociation constant Kd in assay [1] of 59.8 nM. This counts as double-digit nanomolar.

B5: XENP40381 (LB_1001, 1+1 VHVL) (antibody)
chain 1: EVQLLESGGGLVQPGGSLRLSCAVSGFSLSSYGVIWVRQAPGKGLEYVSWVSSGGSTNYASSVKGRFTISRDTSKNTVYLQMNSLRAEDTAVYFCARGATNSGTDIWGPGTLVTVSSASTKGPSVFPLAPSSKSTSGGTAALGCLVKDYFPEPVTVSWNSGALTSGVHTFPAVLQSSGLYSLSSVVTVPSSSLGTQTYICNVNHKPSDTKVDKKVEPKSCDKTHTCPPCPAPELLGGPSVFLFPPKPKDTLMISRTPEVTCVVVDVSHEDPEVKFNWYVDGVEVHNAKTKPREEEYNSTYRVVSVLTVLHQDWLNGKEYKCKVSNKALPAPIEKTISKAKGQPREPQVYTLPPSREEMTKNQVSLTCDVSGFYPSDIAVEWESDGQPENNYKTTPPVLDSDGSFFLYSKLTVDKSRWEQGDVFSCSVMHEALHNHYTQKSLSLSPGK
chain 2: not shown
chain 3: DIVMTQSPSSLSASVGDRVTITCRASQSINSWLSWYQQKPGKPPKLLIYGASNLASGVPSRFKGSGSGTDFTLTISSLQPEDFATYYCQNNYGIIAAGATFGGGTKVEIKRTVAAPSVFIFPPSDEQLKSGTASVVCLLNNFYPREAKVQWKVDNALQSGNSQESVTEQDSKDSTYSLSSTLTLSKADYEKHKVYACEVTHQGLSSPVTKSFNRGEC
As to B5, binding in assay [1] was put at a Kd of 84.5 nM.

B6: XENP41027 (antibody)
chain 1: EVQLLESGGGLVQPGGSLRLSCAVSGFSLSSYGVIWVRQAPGKGLEYVSWVSSGGSTNYASSVKGRFTISRDTSKNTVYLQMNSLRAEDTAVYFCARGATNSGTDIWGPGTLVTVSSASTKGPSVFPLAPSSKSTSGGTAALGCLVKDYFPEPVTVSWNSGALTSGVHTFPAVLQSSGLYSLSSVVTVPSSSLGTQTYICNVNHKPSDTKVDKKVEPKSCDKTHTCPPCPAPELLGGPSVFLFPPKPKDTLMISRTPEVTCVVVDVSHEDPEVKFNWYVDGVEVHNAKTKPREEEYNSTYRVVSVLTVLHQDWLNGKEYKCKVSNKALPAPIEKTISKAKGQPREPQVYTLPPSREEMTKNQVSLTCDVSGFYPSDIAVEWESDGQPENNYKTTPPVLDSDGSFFLYSKLTVDKSRWEQGDVFSCSVMHEALHNHYTQKSLSLSPGK
chain 2: EVQLLESGGGLVQPGGSLRLSCAVSGFSLSSYGVIWVRQAPGKGLEYVSWVSSGGSTNYASSVKGRFTISRDTSKNTVYLQMNSLRAEDTAVYFCARGATNSGTDIWGPGTLVTVSSGKPGSGKPGSGKPGSGKPGSDIVMTQSPSSLSASVGDRVTITCRASQSINSWLSWYQQKPGKPPKLLIYGASNLASGVPSRFKGSGSGTDFTLTISSLQPEDFATYYCQNNYGIIAAGATFGGGTKVEIKEPKSSDKTHTCPPCPAPELLGGPSVFLFPPKPKDTLMISRTPEVTCVVVDVSHEDPEVKFNWYVDGVEVHNAKTKPREEQYNSTYRVVSVLTVLHQDWLNGKEYKCKVSNKALPAPEEKTISKAKGQPREPQVYTLPPSREQMTKNQVKLTCLVKGFYPSDIAVEWESNGQPENNYKTTPPVLDSDGSFFLYSKLTVDKSRWQQGNVFSCSVMHEALHNHYTQKSLSLSPGK
chain 3: DIVMTQSPSSLSASVGDRVTITCRASQSINSWLSWYQQKPGKPPKLLIYGASNLASGVPSRFKGSGSGTDFTLTISSLQPEDFATYYCQNNYGIIAAGATFGGGTKVEIKRTVAAPSVFIFPPSDEQLKSGTASVVCLLNNFYPREAKVQWKVDNALQSGNSQESVTEQDSKDSTYSLSSTLTLSKADYEKHKVYACEVTHQGLSSPVTKSFNRGEC
On to B6, for which binding in the assay with CD16 was characterised by a dissociation constant (Kd) of 242 nM.

B7: XENP41339 (1D2B4, 2+1 VLVH) (antibody)
chain 1: EVQLLESGGGLVQPGGSLRLSCAVSGFSLSSYGVIWVRQAPGKGLEYVSWVSSGGSTNYASSVKGRFTISRDTSKNTVYLQMNSLRAEDTAVYFCARGATNSGTDIWGPGTLVTVSSASTKGPSVFPLAPSSKSTSGGTAALGCLVKDYFPEPVTVSWNSGALTSGVHTFPAVLQSSGLYSLSSVVTVPSSSLGTQTYICNVNHKPSDTKVDKKVEPKSCDKTHTCPPCPAPELLGGPSVFLFPPKPKDTLMISRTPEVTCVVVDVSHEDPEVKFNWYVDGVEVHNAKTKPREEEYNSTYRVVSVLTVLHQDWLNGKEYKCKVSNKALPAPIEKTISKAKGQPREPQVYTLPPSREEMTKNQVSLTCDVSGFYPSDIAVEWESDGQPENNYKTTPPVLDSDGSFFLYSKLTVDKSRWEQGDVFSCSVMHEALHNHYTQKSLSLSPGK
chain 2: not shown
chain 3: DIVMTQSPSSLSASVGDRVTITCRASQSINSWLSWYQQKPGKPPKLLIYGASNLASGVPSRFKGSGSGTDFTLTISSLQPEDFATYYCQNNYGIIAAGATFGGGTKVEIKRTVAAPSVFIFPPSDEQLKSGTASVVCLLNNFYPREAKVQWKVDNALQSGNSQESVTEQDSKDSTYSLSSTLTLSKADYEKHKVYACEVTHQGLSSPVTKSFNRGEC
B7 registered a Kd in assay [1] of 83.1 nM.

For the origin of these results see patent publication US20230151095A1 (published 2023).
